Tested on: Alu I restriction endonuclease
Assay: cleavage_in_vitro
Settings: first strand cleavage rate constant, 13 uM (AT)2 competitor

Sequence	activity [min⁻¹]	activity (95 nM labeled duplex) [min⁻¹]
AAAAAAAAAGCTTTTTTTTT (double strand) [(AA)4 AGCT(TT)4]	0.0031	–
AAAAAAAGCTTTTTTT (double strand) [(AA)3 AGCT(TT)3]	0.0039	–
AAAAAGCTTTTT (double strand) [(AA)2 AGCT(TT)2]	0.0063	–
AAATATAGCTATATTT (double strand) [(AA)(AT)2 AGCT(AT)2 TT]	0.0077	–
ATATAGCTATAT (double strand) [(AT)2 AGCT(AT)2]	–	0.019
ATATATAGCTATATAT (double strand) [(AT)3 AGCT(AT)3]	0.0115	–
ATATATATAGCTATATATAT (double strand) [(AT)4 AGCT(AT)4]	0.0093	–

— US6027884
